From patent publication US20150037339A1 (Regeneron, published 2015)

Tests used:
Activin AC [1] = target: T1, Activin AC (human, UniProt P55103 237-352); test: SPR (Biacore), mAb captured on anti-Fc, Activin AC injected, 37 C
T1 construct: Heterodimer of one betaA and one betaC subunit; bought (R&D Systems #4879-AC)
T1 sequence 1: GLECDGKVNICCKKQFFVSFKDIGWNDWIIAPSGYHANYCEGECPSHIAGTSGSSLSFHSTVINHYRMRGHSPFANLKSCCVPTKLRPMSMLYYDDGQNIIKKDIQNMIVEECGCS
T1 sequence 2: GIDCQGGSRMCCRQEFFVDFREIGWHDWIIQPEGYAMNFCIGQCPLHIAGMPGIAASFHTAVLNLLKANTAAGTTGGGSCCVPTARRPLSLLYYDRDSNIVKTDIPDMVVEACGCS
Protocol: (§1) Antibody-antigen association was monitored for 240 seconds while dissociation in buffer was monitored for 600 seconds. Kinetic association and dissociation rate constants were determined by processing and fitting the data using Scrubber software version 2.0c. Binding equilibrium dissociation constants (KD) and dissociative half-lives (t_{1/2}) were then calculated from the kinetic rate constants as: KD (M)=kd/kₐ and t_{1/2} (min)=[ln 2/(60*kd)]. (NB=no binding observed under the conditions used; NT=not tested).

Activin AC [2] = target: T1, Activin AC; test: SPR (Biacore), mAb captured on anti-Fc, Activin AC injected, 25 C
Protocol: as §1

hBMP6 = target: T2, hBMP6 (human, UniProt P22004 382-513, limits assumed); test: SPR (Biacore 4000), captured on anti-human Fc, 200 nM ligand injected, 37 C
T2 construct: Bought protein
T2 sequence (looked up): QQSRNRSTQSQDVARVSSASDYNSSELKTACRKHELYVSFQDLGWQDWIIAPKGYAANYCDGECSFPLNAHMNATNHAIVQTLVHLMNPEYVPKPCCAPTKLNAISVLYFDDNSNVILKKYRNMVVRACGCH
Protocol: (§2) For the binding experiment, a Biacore 4000 instrument was used. […] All Biacore binding studies were performed in HBS-T running buffer (0.01 M HEPES pH 7.4, 0.5 M NaCl, 3 mM EDTA, 0.5 mg/ml bovine serum albumin, 0.05% v/v Surfactant P20). […] All binding measurements were performed at 37° C. […] Over the captured antibody surface was injected the TGF-beta family ligands through concentrations ranging from 3.1 nM to 200 nM.

Activin B [3] = target: T3, Activin B (human, UniProt P09529 293-407); test: as above
T3 construct: Homodimer of two betaB subunits; bought (R&D Systems #659-AB)
T3 chain: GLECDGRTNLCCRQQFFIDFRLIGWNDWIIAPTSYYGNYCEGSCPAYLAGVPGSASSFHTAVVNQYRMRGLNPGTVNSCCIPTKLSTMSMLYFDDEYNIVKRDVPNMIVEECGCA
Protocol: as §2

Activin AC [4] = target: T1, Activin AC; test: as above
Protocol: as §2

Activin AB [5] = target: T4, Activin AB (human, UniProt P08476 311-426; P09529 293-407); test: as above
T4 construct: Heterodimer of one betaA and one betaB subunit; bought (R&D Systems #1006-AB-005 / #1066-AB)
T4 chain 1: T1 sequence 1
T4 chain 2: T3 chain
Protocol: as §2

hBMP2 = target: T5, hBMP2 (human, UniProt P12643 283-396); test: as above
T5 construct: Bought protein; also called BPM2
T5 sequence (P12643 283-396 limits assumed): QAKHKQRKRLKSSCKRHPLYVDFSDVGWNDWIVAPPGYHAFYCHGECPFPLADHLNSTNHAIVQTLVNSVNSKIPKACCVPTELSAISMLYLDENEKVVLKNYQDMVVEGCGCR
Protocol: as §2

hBMP9 = target: T6, hBMP9 (human, UniProt Q9UK05 320-429); test: as above
T6 construct: Bought protein
T6 sequence (looked up): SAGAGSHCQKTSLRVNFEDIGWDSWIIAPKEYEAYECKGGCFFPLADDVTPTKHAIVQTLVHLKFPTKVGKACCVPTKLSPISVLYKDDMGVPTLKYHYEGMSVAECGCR
Protocol: as §2

GDF11 = target: T7, GDF11 (human, UniProt O95390 299-407); test: as above
T7 construct: Bought protein; also called hGDF11
T7 sequence (O95390 299-407 limits assumed): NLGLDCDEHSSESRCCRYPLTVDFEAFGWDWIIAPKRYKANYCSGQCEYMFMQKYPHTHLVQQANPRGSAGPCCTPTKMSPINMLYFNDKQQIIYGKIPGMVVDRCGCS
Protocol: as §2

Activin A [6] = target: T8, Activin A (human, UniProt P08476 311-426); test: as above
T8 construct: Homodimer of two betaA subunits; bought (R&D Systems #338-AC); also called inhibin-betaA dimer
T8 sequence: T1 sequence 1
Protocol: as §2

hBMP4 = target: T9, hBMP4 (human, UniProt P12644 293-408); test: as above
T9 construct: Bought protein
T9 sequence (looked up): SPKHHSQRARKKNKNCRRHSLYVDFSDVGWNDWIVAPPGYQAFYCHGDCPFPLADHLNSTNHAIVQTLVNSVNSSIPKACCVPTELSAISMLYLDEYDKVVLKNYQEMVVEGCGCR
Protocol: as §2

GDF8 = target: T10, GDF8 (human, UniProt O14793 267-375); test: as above
T10 construct: Bought (R&D Systems #788-G8); also called hGDF8; growth and differentiation factor-8
Protocol: as §2

Activin AB [7] = target: T4, Activin AB; test: SPR (Biacore), mAb captured on anti-Fc, Activin AB injected, 37 C
Protocol: as §1

Activin B [8] = target: T3, Activin B; test: cell-based or functional assay
Activin AC [9] = target: T1, Activin AC; test: cell-based or functional assay
Activin AB [10] = target: T4, Activin AB; test: cell-based or functional assay
Activin A [11] = target: T8, Activin A; test: cell-based or functional assay
Activin AB [12] = target: T4, Activin AB; test: SPR (Biacore), mAb captured on anti-Fc, Activin AB injected, 25 C
Protocol: as §1

B1: H4H10436P2 (antibody, human IgG4, V domains shown)
VH: QVQLVESGGGVVQPGRSLRLTCVASGFTVSSYGMHWVRQAPGKGLEWVAVMFYDESKKYYADSVKGRFTISRDNSKNTLYLQMNSLRVEDTAVYYCARDEQLDFEYWGQGTLVTVSS
VL: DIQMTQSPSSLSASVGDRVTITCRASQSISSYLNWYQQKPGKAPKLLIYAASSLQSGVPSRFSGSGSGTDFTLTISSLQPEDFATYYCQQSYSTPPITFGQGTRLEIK
Activin AC [1]
  50 nM Ag Bound (RU): 32.6 RU
  Kd: 3.75 nM
  koff: 0.00331 s⁻¹
  kon: 881000 M⁻¹ s⁻¹
  t1/2: 3.5 min
Activin AC [2]
  50 nM Ag Bound (RU): 30.1 RU
  Kd: 2.24 nM
  koff: 0.00156 s⁻¹
  kon: 698000 M⁻¹ s⁻¹
  t1/2: 7.4 min
hBMP6
  binding response (resonance units) for 200 nM ligand: 4 RU
Activin B [3]
  binding response (resonance units) for 200 nM ligand: 60.1 RU
Activin AC [4]
  binding response (resonance units) for 200 nM ligand: 55.6 RU
Activin AB [5]
  binding response (resonance units) for 200 nM ligand: 54.3 RU
hBMP2
  binding response (resonance units) for 200 nM ligand: 14.9 RU
hBMP9
  binding response (resonance units) for 200 nM ligand: 11.7 RU
GDF11
  binding response (resonance units) for 200 nM ligand: 0 RU
Activin A [6]
  binding response (resonance units) for 200 nM ligand: 56.5 RU
hBMP4
  binding response (resonance units) for 200 nM ligand: 19.3 RU
GDF8
  binding response (resonance units) for 200 nM ligand: -0.5 RU
Activin AB [7]
  50 nM Ag Bound (RU): 33.9 RU
  Kd: 0.0443 nM
  koff: 0.000458 s⁻¹
  kon: 1.03e+07 M⁻¹ s⁻¹
  t1/2: 25.2 min
Activin B [8]
  IC50 [M], inhibition of 50 pM Activin B in A204/CAGAx12-Luc Smad2/3-luciferase bioassay: 1.3e-10 M
Activin AC [9]
  IC50 [M], inhibition of 4 nM Activin AC in A204/CAGAx12-Luc Smad2/3-luciferase bioassay: 1.3e-09 M
Activin AB [10]
  IC50 [M], inhibition of 30 pM Activin AB in A204/CAGAx12-Luc Smad2/3-luciferase bioassay: 1.4e-10 M
Activin A [11]
  IC50 [M], inhibition of 100 pM Activin A in A204/CAGAx12-Luc Smad2/3-luciferase bioassay: 2e-10 M
Activin AB [12]
  50 nM Ag Bound (RU): 28.2 RU
  Kd: 0.0341 nM
  koff: 0.000261 s⁻¹
  kon: 7.66e+06 M⁻¹ s⁻¹
  t1/2: 44.2 min
